The DeepSol protein solubility set

Experiment: soluble on expression in E. coli; label from the status in PepcDB or PDB records
In the case of “MVKVIASSVRKGNVLDVDGKLYVVLTAQNFHPGKGTPVTQVDMRRIVDGTKVSERWRTTEQVERAFVEDLNFQFLYEDGEGFHFMNPENYDQVVVDVETMGDQKAYLQEGMTCVLSIHEGNPLAVELPRHVTLEIVETEPVVKGQTASSSYKPAILSNGIRTMVPPHIDAGIRVVIATEDNSYVERAKN”, the “soluble on expression in E. coli” value is reported as “not soluble”.
For “MVLDNLGKALANTLKKIARASSVDEALIKELVRDIQRALIQADVNVRLVLQLTREIQRRALEEKPPAGISKKEHIIKIVYEELTKFLGTEAKPIEIKEKPTILLMVGIQGSGKTTTVAKLARYFQKRGYKVGVVCSDTWRPGAYHQLRQLLDRYHIEVFGNPQEKDAIKLAKEGVDYFKSKGVDIIIVDTAGRHKEDKALIEEMKQISNVIHPHEVILVIDGTIGQQAYNQALAFKEATPIGSIIVTKLDGSAKGGGALSAVAATGAPIKFIGTGEKIDDIEPFDPPRFVSRLLGLGDIQGLLEKFKELEKEVEIKEEDIERFLRGKFTLKDMYAQLEAMRKMGPLKQILRMIPGLGYSLPDDVISIGEERLKKFKVIMDSMTEEELLNPEIINYSRIKRIARGSGTSTKDVKELLDQYRQMKKLFKSMNKRQLSRLARRFGM”, the “soluble on expression in E. coli” value was “soluble”.
In the case of “MVLNIKRASSLDGATINVQDVLKPFDHQVGGHTPFTSLPNGHLLKPCEEREILFYQKMPKILKSIAPLCCSTIQGSSVSTLDDSCSNCRHHQLENVVIPESIEGSPILNKRKLSKNFIVLSDLTYRMKSPRILDLKLGTRQHGDQATVSKIACMTAKCQATTSATLGIRLCGMKIPFLEQNSQNFAPNFAPNSAAPNFAPKSEISINKYMGRSMDKTDLFLAVKQFFDVPEAVLEEVERRLLGIRDVLCGADGVRLFGASLLIVIESNFSDSQLPIDNLVRIKVVDFANATFGGLQGDSFYDGRDDGSILGLETLLEIVKGKN”, the “soluble on expression in E. coli” value is reported as “not soluble”.
In the case of “MVLPGNCSTSAALCMQFLTQLASVAIDQAYQPPQQPAYNPHEKLFVSYRSVPPPGSSPSSAAVPIRFSSYSSVGSNIRGLNSPTLHPGSIEPPLTPGNYRLYSMRFCPYAQRVLIYLAKKNIPVEVVNVNPDRSPNWYLPKSPIGRVPALEINGKVVWESNVIVEYLDELFPTNTILPRDAYEKAHQKILVERLSPIMNALFEFYGSSNNPQAQRQNDMNVHSALRNSENLLRDTFYGGRQPGYADYLMWPFLERLQLLTMSPNSQFRYFPGLHYPKIGAYIARMQNQPEVLGFCKHDFFLKKTGEKIW”, the “soluble on expression in E. coli” value is reported as “not soluble”.
For “MVLTDEQRQAIAKKREEAIRRAAAYREREMQAAANATASTSSAAPPAPPKPVIPVMFSQNRQNFQPMKPTMNNSTKQSTINNYIKQVQKPEPTSLIKPTIGVKLKLDIGDRIKIEFYPFHSAVIDLIKQVPSRNYDPAKRSWTVASSDHITISNILKNATAVKVELEPLPQNIIGLTNFKPKAAPSDLNTVMDPSLIERLFPYQKEGVIFALERDGRILLADEMGLGKSVQALTIARYYKADWPLLIVCPASVKGAWKKQLNTFFPIIHRIFIVDKSSDPLPDVCTSNTVAIMSYEQMVLKHDILKKEKYRTIIFDESHMLKDGKARRTKVATDLSKVALHVILLSGTPALSRPSELFTQIRLIDHKLFTNFHEFAIRYCDGKQGRFCFEAKGCTNSEELAAIMFKRLMIRRLKADVLKDLPEKRREVVYVSGPTIDARMDDLQKARADYEKVNSMERKHESLLEFYSLTGIVKAAAVCEHILENYFYPDAPPRKVLIFAHHQIVLDTIQVEVNKRKLGSIRIDGKTPSHRRTALCDSFQTDDNIRVAVLSITAAGVGITLTAASVVVFAEIHFNPGYLVQAEDRAHRVGQKDSVFVQYLIAKKTADDVMWNMVQQKLDVLGQVSLSSDTFRTADKMHLRFNDAAQPGIAEYLKKTPDTTIDEWEDPVEEKEDDDLEIICDSPAPKRIKN”, the “soluble on expression in E. coli” value was “not soluble”.
In the case of “MVNKDVTKVCIGKIEELPEQLGKTVYIEDKELAVFKLSDGSIRAIENRCPHKGGVLAEGIVSGQYVFCPMHDWKISLEDGIVQEPDHGCVKTYETLIEGEHVYLVY”, the “soluble on expression in E. coli” value is reported as “not soluble”.
For “MVNNSKTILITGCSHGGIGYATAVHLKNLGHRVFASARQQKDVEALSQEGFETYLIDVTNYEYIDNALADILNKTGGSLDVIFNNAGYGQAGALEDIDTKFLKQQFETNVFGLHNLTYKALKIMRKQGYGKIIQHSSVLGLVAMKYRGAYNASKYAIEGLTDTMRLELRDSNIFITSLNTGPITSKFRENSIKTITNVNYDSSVHKQQYEKILARQHKKVPFNEPAISVAKVVEKIINCDKPKPRYYITKATWIMASLKRILPTNILDNFLNRY”, the “soluble on expression in E. coli” value was “not soluble”.
In the case of “MVNSSKSILIHAQNKNGTHEEEQYLFAVNNTKAEYPRDKTIHQLFEEQVSKRPNNVAIVCENEQLTYHELNVKANQLARIFIEKGIGKDTLVGIMMEKSIDLFIGILAVLKAGGAYVPIDIEYPKERIQYILDDSQARMLLTQKHLVHLIHNIQFNGQVEIFEEDTIKIREGTNLHVPSKSTDLAYVIYTSGTTGNPKGTMLEHKGISNLKVFFENSLNVTEKDRIGQFASISFDASVWEMFMALLTGASLYIILKDTINDFVKFEQYINQKEITVITLPPTYVVHLDPERILSIQTLITAGSATSPSLVNKWKEKVTYINAYGPTETTICATTWVATKETIGHSVPIGAPIQNTQIYIVDENLQLKSVGEAGELCIGGEGLARGYWKRPELTSQKFVDNPFVPGEKLYKTGDQARWLSDGNIEYLGRIDNQVKIRGHRVELEEVESILLKHMYISETAVSVHKDHQEQPYLCAYFVSEKHIPLEQLRQFSSEELPTYMIPSYFIQLDKMPLTSNGKIDRKQLPEPDLTFGMRVDYEAPRNEIEETLVTIWQDVLGSHHHHHH”, the “soluble on expression in E. coli” value is reported as “soluble”.
In the case of “MVPAAQQTATAPDAALTFPEGFLWGSATASYQIEGAAAEDGRTPSIWDTYARTPGRVRNGDTGDVATDHYHRWREDVALMAELGLGAYRFSLAWPRIQPTGRGPALQKGLDFYRRLADELLAKGIQPVATLYHWDLPQELENAGGWPERATAERFAEYAAIAADALGDRVKTWTTLNEPWCSAFLGYGSGVHAPGRTDPVAALRAAHHLNLGHGLAVQALRDRLPADAQCSVTLNIHHVRPLTDSDADADAVRRIDALANRVFTGPMLQGAYPEDLVKDTAGLTDWSFVRDGDLRLAHQKLDFLGVNYYSPTLVSEADGSGTHNSDGHGRSAHSPWPGADRVAFHQPPGETTAMGWAVDPSGLYELLRRLSSDFPALPLVITENGAAFHDYADPEGNVNDPERIAYVRDHLAAVHRAIKDGSDVRGYFLWSLLDNFEWAHGYSKRFGAVYVDYPTGTRIPKASARWYAEVARTGVLPTA”, the “soluble on expression in E. coli” value is reported as “soluble”.
In the case of “MVPELMFDEPRPGRPPRHLADLDAAGRASAVAELGLPAFRAKQLAHQYYGRLIADPRQMTDLPAAVRDRIAGAMFPNLLTASADITCDAGQTRKTLWRAVDGTMFESVLMRYPRRNTVCISSQAGCGMACPFCATGQGGLTRNLSTAEILEQVRAGAAALRDDFGDRLSNVVFMGMGGAAGQLRQGVGRSSAHYRAAAVRFRDFGPRGDGVDGGSGPCYPQPCRRAARRDPGAVAARPRRRVARYTSSGQQPVEDQRSARCGPVLRQCDRATGVY”, the “soluble on expression in E. coli” value is reported as “soluble”.
In the case of “MVPSEGTWVYVVNLRRVYWGRRTRRAIRAVRMVREFVRRHTKADEVVIDNELNNYIWSRSREKPPARVKIIVSIREEEPEEGGERIRKAVVRLAGRKLRPGRYKG”, the “soluble on expression in E. coli” value is reported as “soluble”.
With “MVQSCSAYGCKNRYDKDKPVSFHKFPLTRPSLCKEWEAAVRRKNFKPTKYSSICSEHFTPDCFKRECNNKLLKENAVPTIFLCTEPHDKKEDLLEPQEQLPPPPLPPPVSQVDAAIGLLMPPLQTPVNLSVFCDHNYTVEDTMHQRKRIHQLEQQVEKLRKKLKTAQQRCRRQERQLEKLKEVVHFQKEKDDVSERGYVILPNDYFEIVEVPA” the “soluble on expression in E. coli” value was “soluble”.
In the case of “MVRAPIDGIVANRSAHTGSWVEGGTSLVSLVPVSELWVDANYKENQIAGMKPGMKAEIRADILKGEVFHGHIESLSPATGASFSLIPIENATGNFTKIVQRVPVRIAFDDAKELKQLLRPGLSVTVSVDER”, the “soluble on expression in E. coli” value is reported as “not soluble”.
For “MVRESIPKEGENIKIQSYKHDGKIHRVWSETTILKGTDHVVIGGNDHTLVTESDGRTWITREPAIVYFHSEYWFNVICMFREDGIYYYCNLSSPFVCDEEALKYIDYDLDIKVYPNGKYHLLDEDEYEQHMNQMNYPHDIDIILRRNVDILQQWIEQKKGPFAPDFIKVWKERYKKIRQY”, the “soluble on expression in E. coli” value was “soluble”.
With “MVRKALDGQEVVTASAETLRVEALEVRLGENLVLKEVDLAVEPGEIVALLGPSGSGKTTLLRAVAGLLRPTGGRILLGKEVFFDGKKGVFLPPERRNLGLVFQSYALWPQRTVYENVAYGLRLRKVPEKAVRERVLGLLDRLGLTGLERRYPGALSGGQQQRVSLARALAYDPKLLLLDEPLSNLDAKLRDQARVWLRETLKATGKAALFVTHDQGEAMAIADRIALLNEGRMEQVGTPEELYRNPKTLFVADFLGNPNVVEALVVGLEGSTARLELAGFPLRARAMGALVPGRLAKLVLRPEALRPAGVGEVNALEGALAHSLYLGSHYEHWVRVGDALLRFYSPLPLGEARVRLAVDPEAALAYPG” the “soluble on expression in E. coli” value was “soluble”.
In the case of “MVRRLLALSRPLYWLYEKRLLREVKRGPMPRHLGLILDGNRRYARALGLSPTKGHEFGVQKAYEVLEWCLEMGIKTVTVWVFSTDNFKRPPEEVETLMNLFLREAERMAEDHRILEHQVRVRFIGRREGFSPEVVRAIERLERRTEGHRGMFLNIAMGYGGREEIVDAVKRLLLEAEARGLSPKEVAEGLTPEDIARHLYTAGLPDPDFIIRTSGEIRLSGFLLWQSAYSEFYFADVLWPEFRKIDFLRALRSYQARERRFGR”, the “soluble on expression in E. coli” value is reported as “soluble”.
In the case of “MVSEEEEEEDGDAEETQDSEDDEEDEMEEDDDDSDYPEEMEDDDDDASYCTESSFRSHSTYSSTPGRRKPRVHRPRSPILEEKDIPPLEFPKSSEDLMVPNEHIMNVIAIYEVLRNFGTVLRLSPFRFEDFCAALVSQEQCTLMAEMHVVLLKAVLREEDTSNTTFGPADLKDSVNSTLYFIDGMTWPEVLRVYCES”, the “soluble on expression in E. coli” value is reported as “not soluble”.
For “MVSFKAGINLGGWISQYQVFSKEHFDTFITEKDIETIAEAGFDHVRLPFDYPIIESDDNVGEYKEDGLSYIDRCLEWCKKYNLGLVLDMHHAPGYRFQDFKTSTLFEDPNQQKRFVDIWRFLAKRYINEREHIAFELLNEVVEPDSTRWNKLMLECIKAIREIDSTMWLYIGGNNYNSPDELKNLADIDDDYIVYNFHFYNPFFFTHQKAHWSESAMAYNRTVKYPGQYEGIEEFVKNNPKYSFMMELNNLKLNKELLRKDLKPAIEFREKKKCKLYCGEFGVIAIADLESRIKWHEDYISLLEEYDIGGAVWNYKKMDFEIYNEDRKPVSQELVNILARRKT”, the “soluble on expression in E. coli” value was “soluble”.
For “MVSQLACIIWTGIIAGRTATLTEGDNMKLPKWLEEKYDLLWDKFEDREFRSTEALEILGKEHLIDEKSLSAAISEMRKKGWIETRKDPDDERRRIYMLRPKSEIIQDYLTLKDDKLGRADIERILKGAADLIRTRVDYKFILVLLFMKQMSDKWMMEYQKAYEDAIKEYGLSEEEARLEARNSAYHDLDIKEEYLWDNIRKDVENLPIKFAGALKNLAELNPAFKDVVDAFDFVEFTQSQENREILRQLVELFSEKKLTNVDPDILGDAYEWILRYFAPTKAKEGEVYTPREVIRLLVEILDPKPGESVYDPASASNGMLIISHKYVKETYGEAERLFLYGQEVNRKTMALGSMNMYIHDIKDHHIAHGDTLLYPKFKESDGIMRFDVVIANPPWNQDGYGEDTLKKGDYWRERFRYGFVNKQSADWAWIQHMIASAKDDGRIGVVIDNGCLFRGGREKSIRSAVLEDDLIEAVILLPEKLFYNTGAPGAIIILNKDKDEERRGKVLFINAGEEYEKHPEVRKLNILSDGNIERILEAYREFQGDDGFSRVVDLDEIRENDYNLNVPLYAFPEEELEDIDVAGEWMRLSEIEEELAEVDERIRGYLDELGYMGVKM”, the “soluble on expression in E. coli” value was “soluble”.
